Test: soluble on expression in E. coli; label from the status in PepcDB or PDB records

Sequence | soluble on expression in E. coli
MSLDPQYDGVWRQSLALLAQDTAGVIPSSTAVKWLTDQQCANGAFAPFRADPAKACDAKTPVDTNNTAAAVQALWAVGGHGDVIEEALGWLKSVQNEDGGWGYVPGTPSDANSTSVVIGALTATETDPAKVVKDGKSPYDALLTFALPCAKDKGAGAFAFQPDKDGKLLPNADATAAGVLGTLGEGLVAEAGKKTGAASCADADQPDRERAAANAAAYLTDTLAKDGHLVSALGGSADQPDYGNTADAVVALAAQGGADKAAEPLAWLKKNAAKWAGEGHHHHHH | soluble
MRQKTIREISVAWKEYKQPYVKQSTMAAYVLILENHILPNFGESDTLHEQAVQDFVLRKIENGLSVKSVKDILIVLKMVMKFGVKNEWMDYQEWDIKYPSSSTTKELEVLSVANHKKILNHIQNHFSFTGLGIYISLCTGLRIGEVCALKWSDINVSEGTITVNRTIERIYIIDGTKKHTELVINTPKTQNSCREIPMTKELLAMVKPLKKVVNEDFYVLTNDEYPTEPRTYRNYYGKLM | not soluble
MGSDKIHHHHHHMNTTASPSRLLGVGLYTASQASSYTGIPAKDIRRWMFGYSASGVEHPGLWAPEIAFLDDKLLGFHDLLEIRFVHAFRQHGVSLQAIRSASLQAREMFGQRYPFTCRRFQTDGRDIFATVLDETGDEALLDLVKRQYAFKQVITPSLYEGIDYAGEESAKRWYPVKRSKAVVLDPARNFGKPVLTITGIDTAAIYHSYLAEGQSAKRVALLYEIPPAAVEAAVNFEHRIAA | not soluble
MGSDKIHHHHHHMAELNKTKVRKELRTERPSIYSFELDEIKQWLTDNGEKPFRAAQIFEWLYEKRVSSFEDMTNLSKDLREKLNTRFVLTTLKTAVKQTSQDGTMKFLFELHDGYTIETVLMRHEYGNSVCVTTQVGCRIGCTFCASTLGGLKRNLEAGEIVAQVVKVQKALDETDERVSSVVIMGIGEPFDNFNEMLAFLKIINHDKGLNIGARHITVSTSGIIPKIYEFADQQMQINFAISLHAPNTEIRSRLMPINRAYKLPDLMEAVKYYINKTGRRISFEYGLFGGVNDQVEHAEELADLLEGVKCHVNLIPVNYVPERDYVRTPRDQIFAFEKTLKSRGVNVTIRREQGHDIDAACGQLRAKERQDETR | not soluble
MGSDKIHHHHHHMSTPSPHCALCGIALGERLCRDSEGKSPAFCPTQNFSEIKEENSALYEGETKRFAKNAAIQEASCYEGREQGYAHLRPAKPRIEEIIEFAQKMGYQKLGLAFCMGLRNEAKAVELLLQKRGFEVVSVICKVGNSDKSTLGIDEEDKLIPHTPEAMCDPLLQARLLNESQTDFNIMLGLCVGHDSLFLKASEALCTVFAVKDRLLGHNPLAAIYTLESYYRSLKEG | not soluble
GSHMSLDNKPIMRVASIDIGSYSVRLTIAQIKDGKLSIILERGRITSLGTKVKETGRLQEDRIEETIQVLKEYKKLIDEFKVERVKAVATEAIRRAKNAEEFLERVKREVGLVVEVITPEQEGRYAYLAVAYSLKPEGEVCVVDQGGGSTEYVFGKGYKVREVISLPIGIVNLTETFFKQDPPTEEEVKRFFEFLEKELSKVKKPVDTIVGLGGTITTLAALEYNVYPYDPQKVHGKVLTYGQIKKWFDTFKEIPSEERSKRFRQVEDRRAKVILAGIGIFLKTLEIFEKDCLIVSDWGLREGVLVSEVLKENHS | soluble
MSLCDVLQMARSTYYYEAKIRDDQDEELSELIVDIFKNSRDNYGQRKIKIELRKKGWTVSRRRIGRIMKEQGLVSKYTVAQFKPAKTSCNESEIGNTLNREFNQEQELKVVVSDLTYVRVQQKWHYICVLVDLYNREIIGYSAGPHKSAELVQRAFASVKYNLQRLELFHTDRGSEFKNKLIDQALETFGIERSLSEKGTPYDNAVAEATFKTIKTEFVRGAVFSSQQELDLELFDYVHWFNTIRIHGSLDYLTPTEYKLMNLEGHHHHHH | not soluble
MVDNVLAILRMGDELADLAVDLFDGVTDPTGIAPATTRIVARAEELLSARGNGRDDIRIACGPGCMTCCTVNVSVLVPEAWTIAVWLRQHHDAGEVDRLAVRLTAAARAIRWLDDADRIRSGVTCPFLDERGWCSIHPVRPLMCRALTSTDPAQCRRALESRTSDEEVPLECNLLQKYLMEQAYRSLAAALERRGIDSAGRELVGTVARFLNEPWLADKFLVGRLITLPESLEHHHHHH | not soluble
